How the values were obtained:
[1] = tested on: MED1 mRNA; assay: MED1 mRNA level by real-time PCR in BT474 cells; type: cell-based, human; conditions: BT474, 10 μg/mL, 48 h, direct incubation
Method: (§1) FIG. 3A) BT474 cells were incubated with 10 μg/mL control and pRNA-HER2apt-siMED1 nanoparticles for 48 h, and MED1 mRNA level was determined by real-time PCR. FIG. 3B) BT474 cells were incubated directly with (as indicated by -) or transfected with indicated pRNAs using lipofectamine 2000. At 48 h post treatment, MED1 protein levels were determined by western blotting. FIG. 3C) BT474 cells were treated with 10 μg/mL pRNA nanoparticles for 48 h and assayed for cell viability by MTT assay. FIG. 3D) Cells were treated as above and seeded for migration, and FIG. 3E) invasion transwell assays. Scale bar: 50 μm. FIG. 3F) After pRNA treatment for 48 h, the mRNA levels of ERα target genes TFF-1, FIG. 3G) c-Myc, and FIG. 3H) cyclin D1 in BT474 cells were determined by real-time PCR.
Cell culture. […] The hydrodynamic diameter and Tm value of pRNA nanoparticles were determined using dynamic light scattering and TGGE assay, respectively, as previously described.^54 The AFM imaging of the pRNA nanoparticles was performed at the University of Nebraska Medical Center imaging facility as previously reported.^55 Briefly, the pRNA nanoparticles (5 μL) were deposited on APS modified mica ^56 for a total of 2 min of incubation time. […] After washing three times with PBS, the cellular uptake of pRNAs was determined using a BD LSRFortessa™ flow cytometer. • Real-time PCR. […]

[2] = tested on: BT474 cells; assay: Transwell migration and invasion assay, BT474 cells; type: cell-based, human; conditions: for invasion ability: Matrigel-coated transwell
Method: as §1
FIG. 4A) BT474 cells were treated with pRNA nanoparticles in combination with vehicle or 1 μM 4-hydroxy-tamoxifen (4-OHT) as indicated for 48 h, and assayed for cell viability by MTT assay. FIG. 4B) Cells were treated as above and the migration and FIG. 4C) invasion capabilities were examined. FIG. 4D) Cells were treated as above and assayed for in vitro mammosphere formation. FIG. 4E) The number of mammospheres was counted, and FIG. 4F) the mammosphere size was calculated. Scale bar: 10 μm.
FIG. 11. […] BT474 cells were treated with pRNA nanoparticles alone or together with 1 μM 4-hydroxy-tamoxifen (4-OHT) for 48 h. Cell migration and invasion were then examined using transwell assay. Photos were recorded using an Olympus SZX12 microscope. Scale bar: 100 μm.
Migration and metastasis assay. The 8-μm-pore-size polycarbonate membrane, which separates the two chambers of a 6.5-mm Transwell (Costar), was coated with or without 1:8 DMEM-diluted Matrigel (Corning). Transwell assay was performed as previously described.^57 Briefly, BT474 cells were treated with pRNAs alone or together with 4-hydroxy-tamoxifen (4-OHT) for 48 h and starved with serum-free DMEM containing 0.2% BSA overnight. On the next day, cells were collected and 2×10^5 cells were seeded to the upper chamber of Transwell. The lower chamber was filled with 600 μL DMEM medium containing 10% FBS. After incubation at 37° C. for 24 h, cells on the membranes were fixed and stained with 0.1% crystal violet in 20% ethanol solution. Cells at top side of membranes were removed completely, and cells at the bottom side were examined with an Olympus SZX12 microscope and counted. • Mammosphere culture and breast cancer stem cell analyses. BT474 cells were treated with pRNAs for 48 h. Then, cells were suspended in DMEM/F12 medium supplemented with 1×B27 (Thermo Fisher), 20 ng/mL bFGF and 20 ng/mL EGF (R&D), and added into 24-well ultralow attachment plates. After treatment with or without 1 μM 4-OHT for 7 days, mammosphere formation was recorded using an Axiovert S100 TV inverted microscope (Zeiss). Xenograft tumor tissues were cut into small pieces and digested with trypsin and collagenase at 37° C. for 1 h, and tumor cells were collected and rinsed with pre-cold PBS. All cells were stained with FITC-conjugated anti-CD44 antibody and PE-conjugated anti-CD24 antibody (BD Pharmingen) in the dark on ice for 30 min. After resuspension with 0.5 mL PBS buffer, CD44^+/CD24^−/low cell population was analyzed by flow cytometry. • Orthotopic xenograft breast tumor mouse model, in vivo imaging and anti-tumor therapy. […]

[3] = BT474, in combination with 1 μM 4-hydroxy-tamoxifen, 48 h

Molecule | depletion of MED1 mRNA [1] | invasion ability ([2]; BT474, 48 h treatment) | migration ability ([2]; BT474, 48 h treatment, transwell without Matrigel) | effect on tamoxifen inhibition of invasion [2, 3] | effect on tamoxifen inhibition of migration [2, 3]
pRNA-HER2apt-siMED1: 3-WJ pRNA nanoparticle bearing a HER2-targeting RNA aptamer and two different MED1 siRNAs; strands p1 SEQ ID NO: 3, p2 SEQ ID NO: 4 (nucleic acid, 2'-F modification; third strand may lack entry; pRNA-HER2apt-siMED1, p1; pRNA-HER2apt-siMED1, p2) chain 1: GGACAGUGAAAGUGAGUCAAAGGAUCAAUCAUGGCCAAAGAUGUUACUUUGAGAGCCUU chain 2: GGCUCUCAAAGUAACAUCUAAGGCCAUGUGUAUGUGGGGGGAGGACGAUGCGGUCUGCUGUGCUUGAUAUGCCCCAGACGACUCGCCCCCCACAUACUUUGUUGAUCCAAUGACUCACUUUCACUGUCCUU | ~70% | specifically suppressed | specifically suppressed | significantly enhanced the inhibitory effects of tamoxifen | significantly enhanced the inhibitory effects of tamoxifen
pRNA-HER2apt^mut-siMED1: control pRNA nanoparticle with mutant HER2 aptamer; strands p1 SEQ ID NO: 5, p2 SEQ ID NO: 6 (nucleic acid, pRNA-HER2apt(mut)-siMED1, p1; pRNA-HER2apt(mut)-siMED1, p2) chain 1: GGACAGUGAAAGUGAGUCAAAGGAUCAAUCAUGGCCAAAGAUGUUACUUUGAGAGCCUU chain 2: GGCUCUCAAAGUAACAUCUAAGGCCAUGUGUAUGUGGGAUGAGGAGUAUGAAGAUACCUGUACUUGAUAUGCCCCAGACGACAUUCCCCCCACAUACUUUGUUGAUCCAAUGACUCACUUUCACUGUCCUU | not | not | – | – | –
